Test results as given in patent US20210115113A1 (CITY OF HOPE, published 2021).

T1: EBV gp350 expressed on the surface of stably transfected CHO cells (Epstein-Barr virus, UniProt P03200 1-907)
T1 construct: also called native gp350; gp350 expressing CHO cells
T1 sequence: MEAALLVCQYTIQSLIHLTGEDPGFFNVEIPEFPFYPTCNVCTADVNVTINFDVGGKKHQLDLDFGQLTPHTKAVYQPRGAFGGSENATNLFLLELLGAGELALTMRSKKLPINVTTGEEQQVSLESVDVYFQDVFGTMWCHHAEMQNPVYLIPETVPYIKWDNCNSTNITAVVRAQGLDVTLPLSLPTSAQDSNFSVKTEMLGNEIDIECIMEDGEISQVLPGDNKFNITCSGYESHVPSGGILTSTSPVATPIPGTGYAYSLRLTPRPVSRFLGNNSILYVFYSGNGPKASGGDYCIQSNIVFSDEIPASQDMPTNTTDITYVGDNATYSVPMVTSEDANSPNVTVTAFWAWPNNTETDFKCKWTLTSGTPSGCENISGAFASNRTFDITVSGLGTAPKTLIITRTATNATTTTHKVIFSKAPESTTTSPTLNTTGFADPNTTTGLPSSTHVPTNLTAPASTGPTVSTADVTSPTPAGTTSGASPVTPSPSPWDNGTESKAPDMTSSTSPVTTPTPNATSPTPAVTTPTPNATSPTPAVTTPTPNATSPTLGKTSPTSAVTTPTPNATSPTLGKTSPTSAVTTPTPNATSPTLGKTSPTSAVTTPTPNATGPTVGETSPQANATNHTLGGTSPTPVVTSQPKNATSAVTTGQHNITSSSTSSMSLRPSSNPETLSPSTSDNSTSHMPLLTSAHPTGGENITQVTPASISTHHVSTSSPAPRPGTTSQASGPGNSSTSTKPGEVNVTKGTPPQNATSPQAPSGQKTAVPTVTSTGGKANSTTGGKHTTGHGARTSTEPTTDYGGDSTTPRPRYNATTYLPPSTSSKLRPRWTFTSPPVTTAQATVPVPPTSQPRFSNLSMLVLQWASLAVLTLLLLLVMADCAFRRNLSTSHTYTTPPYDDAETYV

T2: EBV gp350 on EBV-eGFP virions (Epstein-Barr virus, UniProt P03200 1-907)
T2 sequence: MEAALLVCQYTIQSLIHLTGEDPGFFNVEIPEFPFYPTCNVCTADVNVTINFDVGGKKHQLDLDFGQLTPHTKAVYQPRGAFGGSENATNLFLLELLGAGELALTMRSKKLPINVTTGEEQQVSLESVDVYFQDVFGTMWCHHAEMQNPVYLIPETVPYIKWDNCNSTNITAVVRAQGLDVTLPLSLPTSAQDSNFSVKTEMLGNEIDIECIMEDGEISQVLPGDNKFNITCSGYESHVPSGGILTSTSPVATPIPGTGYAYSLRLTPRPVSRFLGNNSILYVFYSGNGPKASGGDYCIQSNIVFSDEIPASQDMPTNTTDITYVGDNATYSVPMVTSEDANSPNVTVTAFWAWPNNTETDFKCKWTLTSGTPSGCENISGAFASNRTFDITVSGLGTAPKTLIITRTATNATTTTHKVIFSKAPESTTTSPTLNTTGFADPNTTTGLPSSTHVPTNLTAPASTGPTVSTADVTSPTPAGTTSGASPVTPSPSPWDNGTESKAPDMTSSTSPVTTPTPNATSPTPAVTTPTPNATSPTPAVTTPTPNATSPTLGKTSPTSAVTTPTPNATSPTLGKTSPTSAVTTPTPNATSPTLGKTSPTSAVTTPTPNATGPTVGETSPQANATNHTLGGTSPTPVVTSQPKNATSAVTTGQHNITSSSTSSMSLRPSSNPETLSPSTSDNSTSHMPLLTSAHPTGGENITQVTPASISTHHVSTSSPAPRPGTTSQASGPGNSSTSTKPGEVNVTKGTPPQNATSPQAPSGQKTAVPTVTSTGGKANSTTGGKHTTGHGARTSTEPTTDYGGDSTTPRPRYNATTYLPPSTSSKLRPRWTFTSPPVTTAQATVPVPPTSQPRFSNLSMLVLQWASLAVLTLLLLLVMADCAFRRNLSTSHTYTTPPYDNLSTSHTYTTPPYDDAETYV

B1: HB17 (antibody, V domains shown)
VH: AELVIPGASVKVSCKASGYTFTSYWIHWVKQWPGQGLEWIGEINPNNGHTNYNEKFKSKATLTVDKSSSTAYMQLSSLTSEDSAVYYCARNLFYYSRPDYWGQGTSVTVSS
VL: SSLSASLGDRVTISCRASQDIGNYLNWYQQKPDGTIKLLIYYTSRLHSGVPSRFSGSGSGTDYSLTISNLEEEDIATYFCQQGNTLPPTFGGGTKLEIKR
B2: HB1 (antibody, V domains shown)
VH: PGLVAPSQSLSITCTVSGFLLTTYGVHWVRQPPGKGLEWLGVIWAGGSTNYNSALMSRLSINKDISKSQVFLKMNSLQTDDTAMYYCTRDRGYGYLYAMDYWGQGTSVTVSS
VL: KFMSTSVGDRVSVTCKASQNVGTNVAWYQQKPGQSPKALIYSTSSRYTGVPDRFAGSGSGTDYTLTISNVQSEDLAEYFCQQYNTYPYTFGGGTRLDIKR
B3: HB5 (antibody, V domains shown)
VH: AELVRPGASVKISCKAFGYTFTNHNINWVKQRPGQGLDWIGYINPYNDYTSYNQKFKGKATLTVDKSSNTAYMELSSLTSEDSAVYYCARSEGWLRRGAWFAYWGQGTLVTVSA
VL: AILSVSPGERVSFSCRASQSIGTSIHWYQQRTNDSPRLLIKYASESISGIPPRFSGSGSGTDFTLSINSVESEDIADYHCQQSNSWPMLTFGAGTKLELKR
notes: also called mHB5
B4: murine 72A1 (m72A1), anti-EBV gp350 neutralizing antibody from hybridoma HB168 (antibody, V domains shown)
VH: EVQLQQSGPELVKPGTSMKISCKASGSSFTDYTMNWMKQSHGKNLEWIGLINPYNGGTRYNQKFKGKATLTLDKSSSTAYMEVLSLTSEDSAVYYCAGGLRRVNWFAYWGQGTLVSVSA
VL: QAVLTQESALTTSPGETVTLTCRSSTGAVTTSNYANWVQEKPDHLFTGLIGGTNNRVPGVPARFSGSLIGDKAALTITGAQTEDEAIYFCVLWHSNHWVFGGGTKLTVL
notes: also called nAb-72A1; mouse 72A1
B5: HB11 (antibody, V domains shown)
VH: PSLVKPSQTLSLTCSVTGDSITSGFWNWIRKFPGNKLEYMGYISYSGSTYYNPSLKSRISITRDTSKNQYYLQLNSVTTEDTATYYCARGNGGNYDWYFDVWGAGTTVTVSS
VL: AIMSASLGEKVTMSCRASSSVNFMNWYQQKSDDSPKLLIYYISNLAPGVPARFSGSGSGNSYSLTISGMEGEDAATYYCQQFTSSPSWTFGGGTKLEIKR

Legend:
[1] = target: T1, EBV gp350 expressed on the surface of …; assay: cross-competition on gp350-CHO cells (flow), unlabeled 500 µg/ml; competitor: biotinylated 54A1
[2] = target: T1, EBV gp350 expressed on the surface of …; assay: cell competition (flow), unlabeled 250 µg/ml; competitor: biotinylated m72A1 1 µg/ml
[3] = target: T1, EBV gp350 expressed on the surface of …; assay: cross-competition on gp350-CHO cells (flow), unlabeled 500 µg/ml; competitor: biotinylated HB17
[4] = target: T1, EBV gp350 expressed on the surface of …; assay: cross-competition on gp350-CHO cells (flow), unlabeled 500 µg/ml; competitor: biotinylated HB1
[5] = target: T1, EBV gp350 expressed on the surface of …; assay: cell competition (flow), unlabeled 500 µg/ml; competitor: biotinylated m72A1 1 µg/ml
[6] = target: T1, EBV gp350 expressed on the surface of …; assay: cross-competition on gp350-CHO cells (flow), unlabeled 500 µg/ml; competitor: biotinylated HB20
[7] = target: T1, EBV gp350 expressed on the surface of …; assay: cell competition (flow), unlabeled 67.5 µg/ml; competitor: biotinylated m72A1 1 µg/ml
[8] = target: T1, EBV gp350 expressed on the surface of …; assay: cross-competition on gp350-CHO cells (flow), unlabeled 500 µg/ml; competitor: biotinylated HB11
[9] = target: T1, EBV gp350 expressed on the surface of …; assay: cell competition (flow), unlabeled 125 µg/ml; competitor: biotinylated m72A1 1 µg/ml
[10] = target: T1, EBV gp350 expressed on the surface of …; assay: cross-competition on gp350-CHO cells (flow), unlabeled 500 µg/ml; competitor: biotinylated HB5
[11] = target: T1, EBV gp350 expressed on the surface of …; assay: cross-competition on gp350-CHO cells (flow), unlabeled 500 µg/ml; competitor: biotinylated h72A1
[12] = target: T1, EBV gp350 expressed on the surface of …; assay: cross-competition on gp350-CHO cells (flow), unlabeled 500 µg/ml; competitor: biotinylated m72A1
[13] = target: T2, EBV gp350 on EBV-eGFP virions; assay: cell-based or functional assay

Binder | % inhibition of biotinylated nAbs [1] [%] | % inhibition of biotinylated nAbs [2] [%] | % inhibition of biotinylated nAbs [3] [%] | % inhibition of biotinylated nAbs [4] [%] | % inhibition of biotinylated nAbs [5] [%] | % inhibition of biotinylated nAbs [6] [%] | % inhibition of biotinylated nAbs [7] [%] | % inhibition of biotinylated nAbs [8] [%] | % inhibition of biotinylated nAbs [9] [%] | % inhibition of biotinylated nAbs [10] [%] | % inhibition of biotinylated nAbs [11] [%] | % inhibition of biotinylated nAbs [12] [%] | % neutralization of EBV-eGFP infection of Raji cells at 100 µg/ml [13] [%]
B1 | 0 | 32 | 86 | 23 | 32 | 17 | 0 | 11 | 6 | 32 | 16 | 24 | 
B2 | 4 | 89 | 16 | 92 | 91 | 61 | 81 | 96 | 81 | 97 | 95 | 98 | 90
B3 | 13 | 93 | 9 | 92 | 95 | 73 | 94 | 93 | 92 | 98 | 97 | 97 | 
B4 | 1 | 93 | 37 | 82 | 91 | 31 | 97 | 90 | 94 | 97 | 98 | 98 | 
B5 | 9 | 95 | 17 | 93 | 95 | 3 | 87 | 96 | 89 | 96 | 97 | 97 | 90
